Values belong to the binder of their own block, whether it stands above or below them.
Columns and labels:
[1] = target: T1, human DLL3 (delta-like protein 3 isoform 1 precursor) expressed on Ba/F3 cells (human, UniProt Q9NYJ7 27-618); assay: cell ELISA, B-cell culture supernatants on immobilized hDLL3/BaF_H3 cells
T1 construct: Full-length cDNA stably transfected into mouse Ba/F3 cells; also called human DLL3 expressing Ba/F3
T1 sequence: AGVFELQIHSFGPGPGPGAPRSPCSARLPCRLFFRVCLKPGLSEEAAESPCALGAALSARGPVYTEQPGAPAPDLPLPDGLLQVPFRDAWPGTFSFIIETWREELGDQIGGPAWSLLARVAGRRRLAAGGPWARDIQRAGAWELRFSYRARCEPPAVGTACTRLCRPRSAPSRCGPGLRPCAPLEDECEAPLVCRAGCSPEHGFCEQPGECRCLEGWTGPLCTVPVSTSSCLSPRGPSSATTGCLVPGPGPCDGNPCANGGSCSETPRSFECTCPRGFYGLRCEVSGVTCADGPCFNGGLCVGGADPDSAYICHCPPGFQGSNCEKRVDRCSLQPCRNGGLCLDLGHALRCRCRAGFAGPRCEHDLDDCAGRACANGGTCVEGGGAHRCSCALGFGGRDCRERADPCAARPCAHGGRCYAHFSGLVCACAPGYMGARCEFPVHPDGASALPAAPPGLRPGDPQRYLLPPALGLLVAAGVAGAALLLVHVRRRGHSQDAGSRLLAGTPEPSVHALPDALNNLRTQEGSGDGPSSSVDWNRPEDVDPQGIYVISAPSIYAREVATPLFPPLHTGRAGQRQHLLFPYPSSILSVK
Description: ELISA screening was conducted to test specificity of antibodies in B-cell culture supernatants. Human DLL3 expressing Ba/F3 (hDLL3/BaF_H3 established in Example 2, 2.5×10⁴ cells) were immobilized onto a Nunc MaxiSorp 384-well plate (Sigma-Aldrich) which was pre-coated with BSA (Sigma-Aldrich) and SUNBRIGHT (registered trademark) OE-080CS as Biocompatible Anchor for cell Membrane (YUKA SANGYO). Immobilized cells were incubated with 20 microliters (micro L) of B-cell culture supernatants for 1 hour. The supernatants were aspirated and the cells were washed with HEPES buffer (0.02 M HEPES, 5 mM KCl, 4 mM NaHCO₃, 138 mM NaCl, 2 mM CaCl₂, 5 mM Glucose, 0.4 mM KH₂PO₄, 0.34 mM Na₂HPO₄° and 0.1% BSA). After washing, goat anti-rabbit IgG polyclonal antibody HRP conjugate (BETHYL, A120-111P) was added. The cells were further incubated on ice for 1 hour and washed. Then, ABTS Microwell Peroxidase Substrate (Kirkegaard & Perry Laboratories) was added and OD405 was analyzed with […]ax 384 (Molecular Devices).

del0 = target: T2, del0; assay: ELISA with the human DLL3 ECD fragment proteins del0 to del6, OD405
T2 construct: also called human DLL3 ECD with Flag-tag on C-terminus
T2 chain: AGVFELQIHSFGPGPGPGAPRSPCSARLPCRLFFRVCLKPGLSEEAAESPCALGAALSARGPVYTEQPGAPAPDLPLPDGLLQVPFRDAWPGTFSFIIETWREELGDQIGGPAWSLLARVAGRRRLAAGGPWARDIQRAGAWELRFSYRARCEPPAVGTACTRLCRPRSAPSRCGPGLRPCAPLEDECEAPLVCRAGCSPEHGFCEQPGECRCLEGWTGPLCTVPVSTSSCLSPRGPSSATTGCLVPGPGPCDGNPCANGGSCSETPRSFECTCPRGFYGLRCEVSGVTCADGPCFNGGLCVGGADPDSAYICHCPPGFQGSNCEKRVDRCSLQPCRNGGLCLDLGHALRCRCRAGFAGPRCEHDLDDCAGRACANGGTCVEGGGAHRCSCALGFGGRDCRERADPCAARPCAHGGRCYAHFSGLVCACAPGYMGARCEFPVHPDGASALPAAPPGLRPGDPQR
Description: (§1) Nunc MaxiSorp 384-well plates (Sigma-Aldrich) were coated with each of the human DLL3 ECD fragment proteins del0 to del6, and blocked with 20% Blocking One (NACALAI TESQUE). Blocking buffer was removed and recombinant anti-DLL3 antibodies were incubated with the immobilized proteins for 1 hour at room temperature and washed with HEPES buffer (0.05% Tween20, HEPES). Monoclonal ANTI-FLAG M2-Peroxidase, Clone M2 (Sigma-Aldrich) was then added and incubated for 1 hour at room temperature and washed. Then, ABTS Microwell Peroxidase Substrate (Kirkegaard & Perry Laboratories) was added and OD405 was analyzed with […]ax 384 (Molecular Devices).

recombinant human DLL3 [2] = target: T3, recombinant human DLL3 (human, UniProt Q9NYJ7 27-492); assay: Octet binning on SA sensor; Antibody A (biotinylated, loaded first): DL306-SG1; then 20 nM human DLL3, then 80 nM Antibody B
T3 sequence: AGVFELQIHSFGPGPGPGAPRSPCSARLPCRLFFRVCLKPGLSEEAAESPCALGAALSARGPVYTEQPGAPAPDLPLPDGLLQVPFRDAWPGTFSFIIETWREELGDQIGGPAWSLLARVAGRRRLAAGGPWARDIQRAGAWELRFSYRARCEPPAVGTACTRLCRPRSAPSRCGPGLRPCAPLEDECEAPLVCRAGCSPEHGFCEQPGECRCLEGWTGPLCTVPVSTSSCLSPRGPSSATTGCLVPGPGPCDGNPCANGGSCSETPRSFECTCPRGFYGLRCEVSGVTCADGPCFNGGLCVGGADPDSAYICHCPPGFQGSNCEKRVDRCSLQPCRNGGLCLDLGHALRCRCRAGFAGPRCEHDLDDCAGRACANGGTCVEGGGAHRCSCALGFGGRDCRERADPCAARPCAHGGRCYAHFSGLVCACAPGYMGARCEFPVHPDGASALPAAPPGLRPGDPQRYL
Description: (§2) Octet (registered trademark) RED384 (Fortebio) was used to perform competitive binding assays by epitope binning for a panel of antibodies. A biotinylated antibody (DL301-SG1, DL306-SG1, DL309-SG1, DL312-SG1, D30316AE02-SG1, and D30841AE05-SG1) at 40 nM was first loaded to a streptavidin (SA) biosensor. Next, the sensor is exposed to 20 nM of human DLL3, followed by exposure to 80 nM of second antibody. The second antibodies are DL301-SG1, DL306-SG1, DL309-SG1, DL312-SG1, D30316AE02-SG1, D30841AE05-SG1, DLL3-14-SG1, DLL3-22-SG1, DLL3-4-SG1 and DLL3-6-SG1. Raw data was processed using ForteBio's Data Analysis Software 7.0 and the antibody pairs were assessed for competitive binding. Additional binding by the second antibody indicates an unoccupied epitope (non-competitor), while no binding indicates epitope blocking (competitor).
(§3) The competition ratio of antibody B to antibody A was calculated using the following equation: Competition Ratio (Antibody B to Antibody A)=[Binding Response (Antibody B-Antigen)]/[Binding Response (Antigen-Antibody A)]

recombinant human DLL3 [3] = target: T3, recombinant human DLL3; assay: Octet binning on SA sensor; Antibody A (biotinylated, loaded first): DL301-SG1; then 20 nM human DLL3, then 80 nM Antibody B
Description: as §2, §3

recombinant human DLL3 [4] = target: T3, recombinant human DLL3; assay: Octet binning on SA sensor; Antibody A (biotinylated, loaded first): D30316AE02-SG1; then 20 nM human DLL3, then 80 nM Antibody B
Description: as §2, §3

recombinant human DLL3 [5] = target: T3, recombinant human DLL3; assay: Octet binning on SA sensor; Antibody A (biotinylated, loaded first): DL309-SG1; then 20 nM human DLL3, then 80 nM Antibody B
Description: as §2, §3

recombinant human DLL3 [6] = target: T3, recombinant human DLL3; assay: Octet binning on SA sensor; Antibody A (biotinylated, loaded first): D30841AE05-SG1; then 20 nM human DLL3, then 80 nM Antibody B
Description: as §2, §3

recombinant human DLL3 [7] = target: T3, recombinant human DLL3; assay: Octet binning on SA sensor; Antibody A (biotinylated, loaded first): DL312-SG1; then 20 nM human DLL3, then 80 nM Antibody B
Description: as §2, §3

del5 = target: T4, del5; assay: ELISA with the human DLL3 ECD fragment proteins del0 to del6, OD405
T4 construct: also called truncated human DLL3 ECD variant with Flag-tag on C-terminus
T4 chain: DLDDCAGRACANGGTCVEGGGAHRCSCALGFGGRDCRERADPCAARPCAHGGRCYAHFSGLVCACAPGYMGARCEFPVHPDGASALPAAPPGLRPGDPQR
Description: as §1

del6 = target: T5, del6; assay: as above
T5 construct: also called truncated human DLL3 ECD variant with Flag-tag on C-terminus
T5 chain: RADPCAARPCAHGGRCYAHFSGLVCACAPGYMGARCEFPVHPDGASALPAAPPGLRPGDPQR
Description: as §1

B1: DLA0769 (antibody, human IgG1, V domains shown)
VH: QEQLVESGGGLVQPEGSLTLTCTASGFSFSSSGYMCWVRQAPGKGLEWIACISGGSSGDTDYANWAKGRFSISKTSSTTVTLQMTSLTVADTATYFCARDVYIDSTIFNFNLWGPGTLVTVSS
VL: QVLTQTPSPVSAAVGGTVTISCQASQSVYNNNNLAWYQQKPGQPPKLLIYAASSLASGVPSRFKGSGAGTQFTLTISDLECDDAATYYCQGTYYSSGWYSTFGGGTEVVVK
notes: Rabbit B-cell clone, screened as B-cell culture supernatant
- binding result [1]: binds
- binding result (del0): binds

B2: D30841AE05-SG1 (antibody, human IgG1, kappa, V domains shown)
VH: QVQLKESGPALVKPTQTLTLTCTFSGFSLSSSYDMGWVRQAPGQGLEWMGTIYTGDYSTDYASWAKGRVTITADESTSTAYMELSSLRSEDTAVYYCARNTGYGYFGLWGQGTLVTVSS
VL: DIQLTQSPSFLSASVGDRVTITCQSTESVYGSDWLSWYQQKPGQPPKLLIYQASNLEIGVPSRFSGSGSGTDFTLTINSLEAEDAATYYCQGYYSGYIYAFGGGTKVEIKR
notes: Humanized variant of DLA0841 with SG1 heavy and SK1 light constant regions; Labelled with NHS-PEG4-Biotin when used as the first (immobilized) antibody in the Octet assay
- competition ratio (Antibody B to Antibody A) (recombinant human DLL3 [2]): -0.1
- competition ratio (Antibody B to Antibody A) (recombinant human DLL3 [3]): 0.9
- competition ratio (Antibody B to Antibody A) (recombinant human DLL3 [4]): 1.3
- competition ratio (Antibody B to Antibody A) (recombinant human DLL3 [5]): 0.8
- competition ratio (Antibody B to Antibody A) (recombinant human DLL3 [6]): 0
- competition ratio (Antibody B to Antibody A) (recombinant human DLL3 [7]): 1.1

B5: DLL3-14-SG1 (antibody, human IgG1, kappa, V domains shown)
VH: QVQLVQSGAEVKKPGASVKVSCKASGYTFTNYYMHWVRQAPGLGLEWMGIINPSDGSTSYAQKFQGRVTMTRDTSTNTVYMDLSSLRSEDTAVYYCARGGNSAFYSYYDMDVWGQGTTVTVSS
VL: DVVMTQTPLSLPVTLGQPASISCRSSQSLVYRDGNTYLSWFQQRPGQSPRRLIYKVSNWQSGVPDRFSGGGSGTDFTLKISRVEAEDVGVYYCMQGTHWPPTFGQGTKVEIKR
notes: Variable regions of a previously reported anti-DLL3 antibody on SG1/SK1; Used as a second antibody only
- competition ratio (Antibody B to Antibody A) (recombinant human DLL3 [2]): 1.4
- competition ratio (Antibody B to Antibody A) (recombinant human DLL3 [3]): 1.2
- competition ratio (Antibody B to Antibody A) (recombinant human DLL3 [4]): 1.4
- competition ratio (Antibody B to Antibody A) (recombinant human DLL3 [5]): 1
- competition ratio (Antibody B to Antibody A) (recombinant human DLL3 [6]): 1.4
- competition ratio (Antibody B to Antibody A) (recombinant human DLL3 [7]): 1.5

Continued, values first:

- binding result [1]: binds
- binding result (del0): binds
B3: DLA0316 (antibody, human IgG1, V domains shown)
VH: QEQLVESGGGLVQPGGSLKLSCKVSGFDFSNYGVSWVRQAPGKGLEWIGYIDPAFGRTYYASWVNGRFTISSHNAQNTLYLQLNSLTAADTATYFCVRVALVVAGVAYYGMDVWGPGTLVTVSS
VL: DVVMTQTPASVEAAVGGTVTINCQASQNIYSYLSWYQQKPGQPPKLLIYRTSTLASGVPSRFKGSGSGTQFTLTISDLECADAATYYCQSYYYSSGSSYGAFAFGGGTEVVVK
notes: as for B1

- binding result [1]: binds
- binding result (del5): no binding
- binding result (del6): no binding
- binding result (del0): binds
B4: DLA0106 (antibody, human IgG1, V domains shown)
VH: QSVEESGGRLVTPGTPLTLTCTVSGIDLSSYAMSWVRQAPGKGLEWIGIISNSGSGFYANWAKGRFTISKTSSTTVDVKISSPTTEDTATYFCARVFDADSSGYYYYGMDPWGPGTLVTVSS
VL: DVVMTQTPSSVSEPVGGTVTIKCQASEDIESYLAWYQQKPGQPPKLLIYAASTLASGVSSRFRGSGSGTEYTLTISDLECADAATYYCQSTYYDSSGVDWAFGGGTEVVVK
notes: as for B1

- binding result [1]: binds
- binding result (del0): binds
B6: DLA0641 (antibody, human IgG1, V domains shown)
VH: QEQLVESGGGLVQPGASLTLTCKASGFSFNTSYCPCWVRQVPGKGPEWIACIDAGYSGATWYANWAKGRFTISKTSSTTVTLQMTSLTGADTATYFCVRCDAAGSGAFNLWGPGTLVTVSS
VL: AYDMTQTPASVEVPVGGTVTIKCQASQSIYSYLSWYQQKPGQPPKLLIYEASKLTSGVPSRFSGSGSGTEFTLTISGVQCDDAATYYCQQGSGYMDVDNVFGGGTEVVVK
notes: as for B1

- binding result [1]: binds
- binding result (del0): binds
B7: DLA0841 (antibody, human IgG1, V domains shown)
VH: QEQLVESGGGLVQPEGSLTLTCTASGFSFSSSYDMCWVRQAPGKGPEWIACIYTGDGSTDYASWAKGRFTVSKASSTTVTLQMTSLAVADTATYFCARNSGYGYFGLWGPGTLVTVSS
VL: QVLTQTPSPVSAAVGGTVTISCQSTESVYGSDWLSWYQQKPGQPPKVLIYQASNLEIGVPSRFKGSGSGTQFTLTISGAQCDDAATYYCQGYYSGYIYAFGGGTEVVVK
notes: as for B1

Reference: patent publication US20240150465A1 (Chugai, published 2024)
